Assay results from article PMC12881670, “Investigation into ligand selectivity and bias at the formyl peptide receptor family” (The Journal of Pharmacology and Experimental Therapeutics, 2025).

Experiments:
[1] = target: T1, FLAG-tagged human FPR2 (Hs_FPR2) (human, UniProt P25090 1-351); experiment: flow cytometry on cells; competition binding: HEK293 cells stably expressing the receptor, lifted in PBS, on ice 90 min with 10 nM K(5/6-FAM)-WKYMVm and increasing unlabeled ligand; mean fluorescence of 5000 cells as % of that without competitor; One site-Fit logIC50
T1 construct: human formyl peptide receptor 2; also called hFPR2; source: HEK293, stably expressed, on cells; not shown: FLAG, N-terminal, kept
T1 sequence (looked up): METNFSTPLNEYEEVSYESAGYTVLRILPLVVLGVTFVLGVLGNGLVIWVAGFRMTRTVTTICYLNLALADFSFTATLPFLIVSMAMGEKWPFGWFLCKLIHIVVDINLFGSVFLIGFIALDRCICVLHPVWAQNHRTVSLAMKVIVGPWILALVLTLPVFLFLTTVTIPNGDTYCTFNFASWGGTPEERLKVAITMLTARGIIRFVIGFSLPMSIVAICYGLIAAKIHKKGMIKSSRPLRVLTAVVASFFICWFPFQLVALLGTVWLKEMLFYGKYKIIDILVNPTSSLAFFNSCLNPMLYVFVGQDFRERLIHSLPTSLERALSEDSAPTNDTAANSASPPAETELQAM

[2] = target: T2, FLAG-tagged human FPR1 (Hs_FPR1) (human, UniProt P21462 1-350); experiment: as above
T2 construct: human formyl peptide receptor 1; cDNA purchased (cDNA.org); source: HEK293, stably expressed, on cells; not shown: FLAG, N-terminal, kept
T2 sequence (looked up): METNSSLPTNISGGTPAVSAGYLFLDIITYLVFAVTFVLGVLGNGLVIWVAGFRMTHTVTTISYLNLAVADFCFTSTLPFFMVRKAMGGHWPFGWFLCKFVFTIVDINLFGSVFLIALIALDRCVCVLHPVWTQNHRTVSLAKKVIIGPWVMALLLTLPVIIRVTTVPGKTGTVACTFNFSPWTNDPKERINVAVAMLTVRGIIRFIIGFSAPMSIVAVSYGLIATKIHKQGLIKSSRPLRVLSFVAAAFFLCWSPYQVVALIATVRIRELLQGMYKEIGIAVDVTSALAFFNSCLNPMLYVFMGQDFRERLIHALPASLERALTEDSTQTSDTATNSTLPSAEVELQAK

[3] = target: T3, FLAG-tagged mouse Fpr1 (Mm_Fpr1) (mouse, UniProt P33766 1-364); experiment: as above
T3 construct: mouse formyl peptide receptor 1; cDNA purchased (ThermoFisher); source: HEK293, stably expressed, on cells; not shown: FLAG, N-terminal, kept
T3 sequence (looked up): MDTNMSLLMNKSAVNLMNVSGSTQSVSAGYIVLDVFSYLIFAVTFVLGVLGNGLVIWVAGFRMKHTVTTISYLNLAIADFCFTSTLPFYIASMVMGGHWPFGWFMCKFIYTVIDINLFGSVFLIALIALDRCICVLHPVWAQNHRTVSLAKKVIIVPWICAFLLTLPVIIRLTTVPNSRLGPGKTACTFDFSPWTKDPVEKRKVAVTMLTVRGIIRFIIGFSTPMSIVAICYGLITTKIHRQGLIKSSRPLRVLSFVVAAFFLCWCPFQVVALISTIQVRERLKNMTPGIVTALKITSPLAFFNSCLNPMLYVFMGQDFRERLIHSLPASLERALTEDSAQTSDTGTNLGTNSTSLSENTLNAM

[4] = target: T4, FLAG-tagged mouse Fpr2 (Mm_Fpr2) (mouse, UniProt O88536 1-351); experiment: as above
T4 construct: mouse formyl peptide receptor 2; cDNA purchased (ThermoFisher); source: HEK293, stably expressed, on cells; not shown: FLAG, N-terminal, kept
T4 sequence (looked up): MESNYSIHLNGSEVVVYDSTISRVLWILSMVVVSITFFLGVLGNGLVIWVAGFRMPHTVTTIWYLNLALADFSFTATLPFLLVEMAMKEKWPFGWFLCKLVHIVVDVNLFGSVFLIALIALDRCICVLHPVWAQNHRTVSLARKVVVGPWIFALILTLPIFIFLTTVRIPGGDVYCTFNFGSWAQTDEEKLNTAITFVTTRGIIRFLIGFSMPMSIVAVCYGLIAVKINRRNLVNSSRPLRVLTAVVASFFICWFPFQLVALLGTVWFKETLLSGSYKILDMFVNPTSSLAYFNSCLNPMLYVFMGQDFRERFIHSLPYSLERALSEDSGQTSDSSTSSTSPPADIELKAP

[5] = target: T5, FLAG-Hs_FPR2 C-terminally fused to Renilla Luciferase 8 (human, UniProt P25090 1-351); experiment: cell-based or functional assay
T5 sequence (looked up): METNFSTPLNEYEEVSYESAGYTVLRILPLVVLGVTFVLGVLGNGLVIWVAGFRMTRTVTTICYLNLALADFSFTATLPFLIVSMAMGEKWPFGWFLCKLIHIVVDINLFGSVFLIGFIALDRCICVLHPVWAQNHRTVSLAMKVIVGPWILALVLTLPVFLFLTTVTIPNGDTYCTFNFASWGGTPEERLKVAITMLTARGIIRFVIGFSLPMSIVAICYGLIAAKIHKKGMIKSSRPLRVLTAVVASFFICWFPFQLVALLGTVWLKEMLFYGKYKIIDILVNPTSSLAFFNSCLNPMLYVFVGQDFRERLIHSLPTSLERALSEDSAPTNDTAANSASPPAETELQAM

[6] = target: T6, FLAG-Mm_Fpr1 C-terminally fused to Renilla Luciferase 8 (mouse, UniProt P33766 1-364); experiment: cell-based or functional assay
T6 sequence (looked up): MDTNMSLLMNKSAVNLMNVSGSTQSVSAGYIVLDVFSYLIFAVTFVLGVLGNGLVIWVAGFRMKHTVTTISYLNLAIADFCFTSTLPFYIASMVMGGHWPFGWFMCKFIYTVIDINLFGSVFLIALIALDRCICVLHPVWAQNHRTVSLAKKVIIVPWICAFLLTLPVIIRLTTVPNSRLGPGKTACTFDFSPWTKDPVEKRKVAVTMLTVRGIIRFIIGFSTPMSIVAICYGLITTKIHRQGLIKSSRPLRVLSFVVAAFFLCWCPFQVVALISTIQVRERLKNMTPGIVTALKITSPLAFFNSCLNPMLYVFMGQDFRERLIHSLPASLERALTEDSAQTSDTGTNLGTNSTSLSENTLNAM

[7] = target: T7, FLAG-Hs_FPR1 C-terminally fused to Renilla Luciferase 8 (human, UniProt P21462 1-350); experiment: cell-based or functional assay
T7 sequence (looked up): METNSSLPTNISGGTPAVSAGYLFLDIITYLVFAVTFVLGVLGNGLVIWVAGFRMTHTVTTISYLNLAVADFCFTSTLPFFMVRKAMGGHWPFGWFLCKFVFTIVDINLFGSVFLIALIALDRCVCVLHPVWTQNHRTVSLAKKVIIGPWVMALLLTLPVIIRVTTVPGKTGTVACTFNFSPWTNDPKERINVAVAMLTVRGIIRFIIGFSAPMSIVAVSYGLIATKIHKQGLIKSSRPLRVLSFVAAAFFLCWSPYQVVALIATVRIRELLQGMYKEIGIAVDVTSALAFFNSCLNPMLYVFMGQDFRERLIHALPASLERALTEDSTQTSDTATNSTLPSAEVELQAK

[8] = target: T8, FLAG-Mm_Fpr2 C-terminally fused to Renilla Luciferase 8 (mouse, UniProt O88536 1-351); experiment: cell-based or functional assay
T8 sequence (looked up): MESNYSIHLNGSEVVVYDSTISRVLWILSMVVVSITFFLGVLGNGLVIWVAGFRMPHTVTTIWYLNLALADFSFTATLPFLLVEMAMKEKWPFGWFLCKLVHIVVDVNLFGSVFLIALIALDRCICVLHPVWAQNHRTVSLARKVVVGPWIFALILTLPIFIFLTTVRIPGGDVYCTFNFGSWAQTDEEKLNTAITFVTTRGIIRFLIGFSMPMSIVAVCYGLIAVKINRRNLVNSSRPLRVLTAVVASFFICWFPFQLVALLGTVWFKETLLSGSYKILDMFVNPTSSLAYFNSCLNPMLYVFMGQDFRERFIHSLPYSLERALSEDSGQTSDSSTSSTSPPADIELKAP

[9] = target: T1, FLAG-tagged human FPR2 (Hs_FPR2); experiment: cell-based or functional assay
[10] = target: T2, FLAG-tagged human FPR1 (Hs_FPR1); experiment: cell-based or functional assay
[11] = target: T3, FLAG-tagged mouse Fpr1 (Mm_Fpr1); experiment: cell-based or functional assay
[12] = target: T4, FLAG-tagged mouse Fpr2 (Mm_Fpr2); experiment: cell-based or functional assay
[13] = target: T1, FLAG-tagged human FPR2 (Hs_FPR2); experiment: cell-based or functional assay; remark: listed apart in the source
[14] = target: T2, FLAG-tagged human FPR1 (Hs_FPR1); experiment: cell-based or functional assay; remark: listed apart in the source
[15] = target: T3, FLAG-tagged mouse Fpr1 (Mm_Fpr1); experiment: cell-based or functional assay; remark: listed apart in the source
[16] = target: T4, FLAG-tagged mouse Fpr2 (Mm_Fpr2); experiment: cell-based or functional assay; remark: listed apart in the source
[17] = target: T5, FLAG-Hs_FPR2 C-terminally fused to …; experiment: cell-based or functional assay; remark: listed apart in the source
[18] = target: T6, FLAG-Mm_Fpr1 C-terminally fused to …; experiment: cell-based or functional assay; remark: listed apart in the source
[19] = target: T7, FLAG-Hs_FPR1 C-terminally fused to …; experiment: cell-based or functional assay; remark: listed apart in the source
[20] = target: T8, FLAG-Mm_Fpr2 C-terminally fused to …; experiment: cell-based or functional assay; remark: listed apart in the source

B1: WKYMVM (peptide)
peptide: WKYMVM
notes: synthetic hexapeptide, all L residues; also called L-enantiomer of WKYMVm; source: bought: Tocris
Max Comp (%) [1]: 99.8%
Max Comp (%) [2]: 94.9%
Log IC50 [3]: -5.55 log M
Max Comp (%) [3]: 85.4%
Log IC50 [4]: -6.23 log M
Max Comp (%) [4]: 100%
BRET of receptor-RLuc8 with Arrestin 3-YFP: Emax (% of 1 μM WKYMVm) [5]: 94.8%
BRET of receptor-RLuc8 with Arrestin 3-YFP: Emax (% of 1 μM WKYMVm) [6]: 83.1%
BRET of receptor-RLuc8 with Arrestin 3-YFP: Log EC50 (M) [6]: -5.56 log M
BRET of receptor-RLuc8 with Arrestin 3-YFP: Emax (% of 1 μM WKYMVm) [7]: 75%
BRET of receptor-RLuc8 with Arrestin 3-YFP: Emax (% of 1 μM WKYMVm) [8]: 94.3%
BRET of receptor-RLuc8 with Arrestin 3-YFP: Log EC50 (M) [8]: -6.59 log M
ERK1/2 phosphorylation (Western blot): Emax (% of 1 μM WKYMVm) [9]: 125%
ERK1/2 phosphorylation (Western blot): Emax (% of 1 μM WKYMVm) [10]: 141%
ERK1/2 phosphorylation (Western blot): Emax (% of 1 μM WKYMVm) [11]: 118%
ERK1/2 phosphorylation (Western blot): Log EC50 (M) [11]: -7.08 log M
ERK1/2 phosphorylation (Western blot): Emax (% of 1 μM WKYMVm) [12]: 128%
ERK1/2 phosphorylation (Western blot): Log EC50 (M) [12]: -7.91 log M
receptor internalization (flow cytometry): Emax (% of 1 μM WKYMVm) [13]: 82.3%
receptor internalization (flow cytometry): Emax (% of 1 μM WKYMVm) [14]: 101%
receptor internalization (flow cytometry): Emax (% of 1 μM WKYMVm) [15]: 99.4%
receptor internalization (flow cytometry): Log EC50 (M) [15]: -6.29 log M
receptor internalization (flow cytometry): Emax (% of 1 μM WKYMVm) [16]: 75.6%
receptor internalization (flow cytometry): Log EC50 (M) [16]: -6.96 log M
BRET of receptor-RLuc8 with Venus-mGsi: Emax (% of 1 μM WKYMVm) [17]: 79.2%
BRET of receptor-RLuc8 with Venus-mGsi: Emax (% of 1 μM WKYMVm) [18]: 37.5%
BRET of receptor-RLuc8 with Venus-mGsi: Log EC50 (M) [18]: -5.68 log M
BRET of receptor-RLuc8 with Venus-mGsi: Emax (% of 1 μM WKYMVm) [19]: 44.1%
BRET of receptor-RLuc8 with Venus-mGsi: Emax (% of 1 μM WKYMVm) [20]: 87.9%
BRET of receptor-RLuc8 with Venus-mGsi: Log EC50 (M) [20]: -6.49 log M
